± gives the uncertainty stated by the source.

This data set can be described thus: amyloid nucleation score (Sup35N fusion, yeast selection) (log enrichment); library NNK2; higher = more nucleation; inactive = no reads after selection. Put shortly: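 Psi-negative yeast expressed Sup35N fused to peptides of 20 random codons. They were induced 24 hours with 100 μM copper sulfate, grown 7 days at 30°C without adenine and uracil, and their plasmid inserts from input and output were Illumina-sequenced. The nucleation score is the DiMSum log enrichment of output over input reads, centred on the mode score of non-aggregating sequences. Sequences with under 100 input reads were excluded.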
Turning to MTFVHVSNMWDRNEGICGDE, the amyloid nucleation score is -0.323 ± 0.41. In turn, YVGSFVGSGIVLLNNSAVRH yielded an amyloid nucleation score of 3.4 ± 0.14. For SVRKGVFNSSMNGVCTTVQS, the amyloid nucleation score is -0.28 ± 0.74.

Substance DHLGWHEVTVSLELSFFYRV returned an amyloid nucleation score of 4.83 ± 0.11.

RQTGRLDFRTISRVKVDVIV came in with an amyloid nucleation score of 1.92 ± 0.28. The substance SFGDTSKRWLFAVGGCKCRL showed an amyloid nucleation score of 0.371 ± 0.51. Consider YFNNPLFVEDFWLSYVSMSY, for which the amyloid nucleation score is -0.749 ± 0.32.

RLSCDTVFMMSFGIICSFFN came in with an amyloid nucleation score of 4.418 ± 0.039. For the substance PGAADRTVRYGSRRPPD, the amyloid nucleation score is -0.003 ± 0.41. The value for RSRSYHADWACTVVCLCYS was 4.24 ± 0.066; that for GALMMMVEGSESVNKVHFVY was -1.05 ± 0.44; that for NGNTVVLGSLIFYKLVLVAS was 5.64 ± 0.033. Substance GYLVYFLCINRLACCSYLAT returned an amyloid nucleation score of 7.981 ± 0.065. For NRYVLCNLVVISVSGISLCT, the amyloid nucleation score was 7.249 ± 0.063. The value for WIILGTSSAVWRTHDYLA was 3.43 ± 0.06. The substance SLHRFYYSHLYALRMRGNSR registered an amyloid nucleation score of 6.16 ± 0.091.

In the case of SKVSKGLHST, the amyloid nucleation score result is “inactive”. With PTGYILESTYFTGQGKCAGL, the amyloid nucleation score was -0.255 ± 1.1.

RSELLRRKGILMYLLPGGGY showed an amyloid nucleation score of 0.009 ± 0.61. The value for QYVVNLFYPLYMEKKCWSSI was 6.288 ± 0.039. Regarding YTGFWFIFTKGHTE, the amyloid nucleation score result was “inactive”. The value for DKIVI was -0.978 ± 0.54. Next, FTFTRQSAGAHRYDIFVPRT: 0.17 ± 0.41. As for YIRCYRNV, the amyloid nucleation score was -0.536 ± 0.33. Next, TCTVASLYLGAFDWNYVEAV: 3.08 ± 0.12; SSQCYYGPLFWSYEFRSYCV: -0.162 ± 0.46. Next, NLHVGREPQGSEYVDPFSVV: 0.731 ± 0.25. As to SYARIYFWDEILENPSPVWE, the amyloid nucleation score is -0.378 ± 1. Regarding LLLGINSCQEQPKGSFEERH, the amyloid nucleation score was -0.91 ± 1.1. FRSGGPLFFHSMGTGFVFVH: the amyloid nucleation score was -1.5 ± 1.1. Next, FGQIRCWYTMICYGQDIGFT: 6.37 ± 0.047. The value for LVDNLR was -0.441 ± 1.1; that for WDNDQHIQRNLY was “inactive”. As to DSLTCCIS, the amyloid nucleation score is 3.37 ± 0.093.

RKCAPMDASSRHADSYPSQS yielded an amyloid nucleation score of 1.24 ± 0.19. Next, VAFKSTLQVLVANKFG: -0.627 ± 1; TLYSVSLGKEFYYG: 0.192 ± 0.46; NMFNPFRFRISNYEVCSNMC: 6.257 ± 0.043. On to VLCCPSKISTALKCWVGEAC, for which the amyloid nucleation score worked out at 0.233 ± 0.62. The value for SNLVKHRQV was 0.745 ± 0.46; that for NWMCMRCGVFVVLAVCLFWS was 3.42 ± 0.075; that for SVYRFFAKSKMKCWGLHNGG was -0.63 ± 0.55. Consider LSGFV, for which the amyloid nucleation score was -0.554 ± 0.64. Next, SNVFEVGPMGPSR: 0.056 ± 0.5. NFSNVFWKFISRWLTAF: the amyloid nucleation score entry was “inactive”. In the case of NYDGVVVEDNVVGTRTSVAG, the amyloid nucleation score was -0.007 ± 0.36.

Turning to VGKRIVHIFCVEFGSLMGC, the amyloid nucleation score result was “inactive”. Next, NFGLEELTGKIGGRTC: 1.04 ± 0.23. The value for LSNLMRISMIFEYAAPLFRF was “inactive”. As for WVVRK, the amyloid nucleation score is -1.76 ± 0.44. The value for VLWIGFYLNLYLPYLCNHVD was 3.37 ± 0.076; that for VYALTGMDKYGGLALYLSWR was 0.307 ± 0.44; that for LVLWKLQVCSPLTVLRTPYR was 0.889 ± 0.28. Next, LCGMLYAAAGHWFSVMPPGD: 0.997 ± 0.32; REKVPYT: -0.428 ± 0.48; PEGISNGLK: -1.44 ± 0.55.

The substance GNGLVMLKTVHLWVLRDVLG displayed an amyloid nucleation score of 0.839 ± 0.24.

As to KFLHKQVFNFHVSGMNPMAS, the amyloid nucleation score was found to be 5.75 ± 0.069. Substance RISVYRPVGVLLF gave an amyloid nucleation score of 0.755 ± 0.4. As to MDWSSGSYGSLSSSHAIERF, the amyloid nucleation score was -0.093 ± 0.79. The value for FWSRKCSFCFNGASVSGEVM was -0.088 ± 1.1; that for IGTLSRNERASRNTHWDILT was 0.757 ± 0.47.

Consider LRRSTKSSCGVRCWVIEMGS, for which the amyloid nucleation score was 0.138 ± 1.1. Substance YYSSLTYCMLQWYSLFWWGH showed an amyloid nucleation score of 0.658 ± 0.51. The value for ERLGSLFNDGQANS was 0.21 ± 0.41. Next, FTILTP: -0.375 ± 0.79; ETESG: 0.72 ± 0.38; SWGGLSKGYCLFQSWRVVLG: 3.75 ± 0.054. Next, VVYLEIVTRGATGYLVCLPC: -0.437 ± 0.6. Take MPLQFDPVWFILNTLLRPHA: the amyloid nucleation score was -0.228 ± 0.42. On to KGSEPLYGLCIIMV, for which the amyloid nucleation score came to 0.851 ± 0.8. For the substance SKFNFIYCAGDQLSYRYRLG, the amyloid nucleation score was -0.728 ± 1.

On to SWALKRAPVGNR, for which the amyloid nucleation score result is “inactive”. The value for FVLWIRYALRVTDYTVYMGA was 0.436 ± 0.39. The value for TVFNR was 0.236 ± 0.3; that for AWRDTHWTASCRSGSRRILS was 4.59 ± 0.046.

In turn, SCLIGLRLVLSLTAHDTETA had an amyloid nucleation score of 3.97 ± 0.11. Next, DKDCVGIVLLFGQCVSITLA: “inactive”; FSSEGLRIRKIRQGISISLC: -1.21 ± 1.1. The value for PCWCSVLVL was 1.51 ± 0.41.

The substance FYCSNSYYNVRIDRQNYCQM came in with an amyloid nucleation score of 5.501 ± 0.052. Turning to YCNYVTRDSFAFMSSFFMSA, the amyloid nucleation score was -1.55 ± 1.1. Next, GSYGQVHSWYVCDFPGWVLR: 0.438 ± 0.57. NCYNMVYNCVPSEKAVKTCR: the amyloid nucleation score came out at 0.264 ± 0.32. Next, VAGSS: -0.101 ± 0.29.

QVALGNVCNRLYTLMARQAN: the amyloid nucleation score is -0.283 ± 0.26.

Substance LGDRCNS had an amyloid nucleation score of 2.36 ± 0.11. Next, IELFVSWKIGWVELRDVLLV: -0.055 ± 0.55; LVTSCLQVEW: 0.284 ± 0.28; DIGRLTLHGRVSADG: 0.748 ± 0.25. Turning to AGFYHPSNFGCLGSGLLRTM, the amyloid nucleation score result is “inactive”. Regarding HEPGFHYYCY, the amyloid nucleation score worked out at 2.43 ± 0.1.

Regarding SRDVAAYNRRRRFAVLGWGE, the amyloid nucleation score came out at 0.44 ± 0.38.

For VLSLLMPVVRIVWKFN, the amyloid nucleation score was -0.084 ± 0.76.

Turning to WGENARAESRTEEMLL, the amyloid nucleation score was 1.81 ± 0.22. The value for FLGVFSYASSMIISVKRERS was 4.1 ± 0.095; that for RTFVVNQVEWDVYIWRSGSV was 0.004 ± 0.56; that for IGSVDDLNLKRICNDLDTP was 0.182 ± 0.79. Next, EGGLYNCYADTPTKVW: -1.07 ± 0.74; YAFSMDRWVDLMLFQRV: 4.96 ± 0.092. The value for FYENN was -0.729 ± 0.78; that for FYFGYLTFISENHVGIQEQG was “inactive”; that for CSSDSIYSSWWFSLYNITGE was “inactive”.

Take DSGVEMYLFNSRFLRSLGND: the amyloid nucleation score turned out to be 3.65 ± 0.052. Regarding IREPSCWFLFFIKINAGDAV, the amyloid nucleation score result was “inactive”. As for GYSGVLILWEVVICWYGVTG, the amyloid nucleation score is -0.313 ± 0.61. Regarding FNCTRKNLCFFGIVYSSIIT, the amyloid nucleation score is -0.86 ± 0.63. Regarding LLSFLMRSRRFLSTVKY, the amyloid nucleation score is -0.931 ± 0.78.

Turning to HGRRQGFAVTVGN, the amyloid nucleation score was 0.355 ± 0.45. Next, DWLYMMKIARSPVVCRSRPS: 0.38 ± 0.35. For the substance FVQCLWVAWGSSGSSWQKSE, the amyloid nucleation score was 5.541 ± 0.041.

Regarding VFAMDYDVCDNSTCHKGV, the amyloid nucleation score was -0.057 ± 0.21. On to AIRRPDRSQFLAYLVSSCKF, for which the amyloid nucleation score was -0.218 ± 0.45. Next, ICYKVLAMDLMLCMSGGVLV: 2.1 ± 0.092. Next, SDLYNSSFEVLYSSYCPDVW: “inactive”. For TRSTNVQLDPYFYLW, the amyloid nucleation score was -1.16 ± 0.39. The value for MIYSVMFNVNGACTYNCRII was 7.478 ± 0.055.

NKMTF showed an amyloid nucleation score of 0.502 ± 0.44. Turning to FRVKRL, the amyloid nucleation score was -1.19 ± 1.1. Turning to IRIGFRMHCLVIQYMNCFIS, the amyloid nucleation score worked out at 2.18 ± 0.075. The value for HINFRSVITVV was -0.81 ± 0.44; that for TICFIFHSFRLFRIDAY was 4.54 ± 0.098. Substance TYHYLMYLLVRRNMGDVNGA showed an amyloid nucleation score of 3.49 ± 0.097. The value for LASYLRFSISSVIFNTRAIL was -0.315 ± 0.54; that for YISMKWEVAHNYWWILSGIP was 0.444 ± 0.25; that for SQGIVSDAANYMHILSAGYD was 0.044 ± 0.55.

In turn, RLNIGLLSVGYR gave an amyloid nucleation score of 1.76 ± 0.17.

Substance IVRNPKLMLSNGH showed an amyloid nucleation score of 0.907 ± 0.58. The value for SEGIADVLSVSCWCYPCRPY was -1.21 ± 1.1. The value for SARHSRDR was 2.31 ± 0.066.

Take SRFGGVSTHYLARSFVDVTM: the amyloid nucleation score turned out to be 0.039 ± 0.44. Next, VLDFQTSYMLPEFVRPGVGY: 0.216 ± 0.25; HSLCLVVLGFML: 5.428 ± 0.04. The value for KFRMDGGFILNVVHKQHNMV was 0.023 ± 0.8; that for IWIKVTRLRVGFLKRVLVVA was -1.44 ± 0.55; that for LVGWSLHSITFPEWRGHNPK was -0.991 ± 1.1. Consider KWGRCSIGT, for which the amyloid nucleation score result was “inactive”. Turning to MLKQSGDSVAHCLGKTGSQM, the amyloid nucleation score is 0.371 ± 0.35. With AYYCLRDLEVEYKVGYGSRL, the amyloid nucleation score came out at 2.64 ± 0.21.

These data come from the supplement of paper PMC12042874.
